Assay results from patent US6410329.

Tests used:
Assay in all cases: cell_activity
[1] = molecular target: T1, VirD2-VirD1 translational fusion (p35SD2D1) (Agrobacterium tumefaciens) (UniProt P06668)
T1 sequence: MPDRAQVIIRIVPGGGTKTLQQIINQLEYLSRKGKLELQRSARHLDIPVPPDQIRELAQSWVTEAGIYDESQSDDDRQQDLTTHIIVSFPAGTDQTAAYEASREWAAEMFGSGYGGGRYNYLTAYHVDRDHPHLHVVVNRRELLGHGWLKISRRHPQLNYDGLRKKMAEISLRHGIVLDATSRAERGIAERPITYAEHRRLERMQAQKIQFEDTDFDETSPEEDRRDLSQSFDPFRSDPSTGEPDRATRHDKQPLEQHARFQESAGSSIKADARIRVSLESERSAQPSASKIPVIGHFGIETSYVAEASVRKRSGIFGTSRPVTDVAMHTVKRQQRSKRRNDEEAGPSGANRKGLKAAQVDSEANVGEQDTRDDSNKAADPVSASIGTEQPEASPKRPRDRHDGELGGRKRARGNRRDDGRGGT

[2] = system: VirD1 (Agrobacterium tumefaciens); conditions: VirD1 alone
[3] = molecular target: T2, VirD1-VirD2 translational fusion (p35SD1D2) (Agrobacterium tumefaciens) (UniProt P06668)
T2 sequence: T1 sequence

[4] = maize, pwBarRBLuc geminivirus vector

## ATCCGGCAGGATATATACCGTTGTAATTCTGCA (double strand) [T-DNA right border duplex, pRB(+)Luc]
[1]; maize, 1 ug + 4 ug
  activity (% of control luciferase): 2.6
[1]; tobacco, 0.5 ug + 2 ug
  activity (% of control luciferase): 5
[2]; maize
  activity (% of control luciferase): 105
[2]; tobacco
  activity (% of control luciferase): 72
[3]; maize, 1 ug + 4 ug
  activity (% of control luciferase): 2.4
[3]; tobacco, 0.5 ug + 2 ug
  activity (% of control luciferase): 5.4

## ATCCGGCAGGATATATACCGTTGTAATTCTGCA (double strand) [T-DNA right border reversed, pRB(-)Luc]
[2]; tobacco
  activity (% of control luciferase): 95

## ATCCGGCAGGATATATACCGTTGTAATTCTGCA (double strand) [right border in WDV replicon pwi35SRBLuc]
[1]; [4]
  activity (% of control luciferase): 3.6
[2]; maize, target alone 15.0
  activity (Luc/GUS ratio): 8.1
[3]; [4]
  activity (% of control luciferase): 6
